# Assay results as given in the nanobody polyreactivity screen of Harvey et al. (2022).
# Test: yeast display, Sf9 membrane polyspecificity reagent, FACS + sequencing; frameworks hold sequencing errors
# Summary of the method: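 Sorting gates, low and high (top ~1%), were placed on anti-HA fluorescence to track expression and on streptavidin fluorescence to track reagent binding. A clone's polyreactivity label is taken from the gate it came out of. The reagent was 10% biotinylated, detergent-solubilized Sf9 membrane, applied for 1 hour at 4 °C to galactose-induced yeast display cells.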
row,Sequence,polyreactivity (PSR sort gate)
1,QVQLVESGGGLVQAGGSLRLSCAASGSTFYVYAMGWYRQAPGKERELVASINSGGITNYADSVKGRFTISRDNAKNTVYLQMNSLKPEDTAVYYCAARSYKTGRYPQRNKYYYWGQGTQVTVSS,high polyreactivity
2,QVQLVESGGGLVQAGGSLRLSCAASGSTFYVYAMGWYRQAPGKVREFVATISTSGAITYYADSVKGRFTISRDNAKNTVYLQMNSQKPEDTAVYYCARSGSLLSQVWYNYWGQGTQVTVTS,low polyreactivity
3,QVQLVESGGGLVQAGGSLRLSCAASGSTFYVYDMGCYRQAPGKEREWVAAISSGAGSTYYADSVKGRFTISRDNAKNTVYLQMNSLKRKIPRSITALLFTVNGGGSRSHDYWAQGTQVTVSS,low polyreactivity
4,QVQLVESGGGLVQAGGSLRLSCAASGSTFYVYDMGWYRQAPGKERELVADISWSGGSTYADSVKGRFTISRDNAKNTVYLQMNSLKPEDTAVYYCAATSRPRPYHGGRMYYWGQGTQVTVSS,high polyreactivity
5,QVQLVESGGGLVQAGGSLRLSCAASGSTFYWNAMGWYRQAPGKESEFVARISSRGGSTYYADSVKGRFTISRDNAKNTVYLQMNSLKPEDTAVYYCAARLRRTQTYSSGRPGDYWGQGTQVTVSS,high polyreactivity
6,QVQLVESGGGLVQAGGSLRLSCAASGSTFYWYTMGWYRQAPGKERELVARISSSGSTNYADSVKGRFTISRDNAKNTVYLQMNSLKPEDTAVYYCNKDWIYRGYDYWGQGTQVTVSS,high polyreactivity
7,QVQLVESGGGLVQAGGSLRLSCAASGSTFYWYTMGWYRQAPGKERELVATITSVGRTNYADSVKGRFTISRDNAKNTVYLQMNSLKPEDTAVYYCAADSYSYRYYYWGQGTQVTVSS,high polyreactivity
8,QVQLVESGGGLVQAGGSLRLSCAASGSTFYYNAMGWYRQAPGKEREFVAAISSRGGSTYYADSVKGRFTISRDNAKNTVYLQMNSLKPEDTAVYYCAAKYRHRYDWGQGTQVTVSS,high polyreactivity
9,QVQLVESGGGLVQAGGSLRLSCAASGSTFYYNAMGWYRQAPGKERELVARISRSGGSTYADSVKGRFTISRDNAKKTVSFQMNSLKPEDTAVYYCNADAYGTQEFTSYAVRYDYWGQGTEVTVSS,low polyreactivity
10,QVQLVESGGGLVQAGGSLRLSCAASGSTFYYNAMGWYRQAPGKERELVAVINSGGSTYYADSVKGRFTISRDNAKNTVYLQMNSLKPEDTAVYYCARRRRESRQDGDYWGQGTQVTVSS,high polyreactivity
11,QVQLVESGGGLVQAGGSLRLSCAASGSTFYYNAMVWYRQAPGKEREFVASISWRGGRTYYADSVKGRFTISRDNAKNTVYLQMNSLKQEDTAVYYCAKGYLALGQPDDYWGQGTQVTVSS,high polyreactivity
12,QVQLVESGGGLVQAGGSLRLSCAASGSTFYYNGMGWYRQAPGKEREFVAAITSSGTSTHYADSVKGRFTISRDNAKNTVYLQMNSLKPEDTAVYYCNRYGAHVSTAYYYWGQGTQVTVSS,high polyreactivity
13,QVQLVESGGGLVQAGGSLRLSCAASGSTFYYNSMGWYRQAHGKERQLVAAISKSSTRTYYADSVKGRFTISRDNAQNTVYLQMNSLKPEDTAVYYCAARQWRRSRFDYWGQGTQVNVSS,high polyreactivity
14,QVQLVESGGGLVQAGGSLRLSCAASGSTFYYYAMGWYRQAPGKEREFVAAISWRGGSTYYADSVKGRFTISRDNAKNTVYLQMNSLKPEDTAVYYCAATTLYRGVYYRIFGWGYERGHWGQGTQVTVSS,low polyreactivity
15,QVQLVESGGGLVQAGGSLRLSCAASGSTFYYYAMGWYRQAPGKERELVAAIDWSGESTYYADSVKGRFTISRDNAKNTVYLQMNSLKPEDTAVYYCAADLGYPWGYVLFYKQSFSYYYWGQGTQVTVSS,low polyreactivity
16,QVQLVESGGGLVQAGGSLRLSCAASGSTFYYYAMGWYRQAPGKERELVAAISVSGASKYYADSVKGRFTISRDNAKNTVYLQMNSLKPEDTAVYYCAADEGYPGDGDYWGQGTQVTVSS,low polyreactivity
17,QVQLVESGGGLVQAGGSLRLSCAASGSTFYYYAMGWYRQAPGKERELVAAITYRGGSTYYADSVKGRFTISRDNAKNTVYLQMNSLKPEDTAVFYCAIVGYKTSSIRYGYWGQGTQVTVSS,high polyreactivity
